In article PMC5711526:

Target: human alpha-thrombin (Homo sapiens, UniProt P00734;P00734 328-363;364-622)
Assay: native ESI-MS

B1: TBA (Bock thrombin binding aptamer, 15-mer) (structured_DNA)
DNA: GGTTGGTGTGGTTGG
  binding result: binds
